According to patent publication US20240317826:
Where a chain is given by its changes, count along the chain named. Names may count otherwise.

What was measured:
[1] = molecular target: INI1 of 293 T producer cells (endogenous), Q12824

B1: HIV-1NL4-3 integrase (IN), wild type, in virus / GagPol (protein)
chain: FLDGIDKAQEEHEKYHSNWRAMASDFNLPPVVAKEIVASCDKCQLKGEAMHGQVDCSPGIWQLDCTHLEGKVILVAVHVASGYIEAEVIPAETGQETAYFLLKLAGRWPVKTVHTDNGSNFTSTTVKAACWWAGIKQEFGIPYNPQSQGVIESMNKELKKIIGQVRDQAEHLKTAVQMAVFIHNFKRKGGIGGYSAGERIVDIIATDIQTKELQKQITKIQNFRVYYRDSRDPVWKGPAKLLWKGEGAVVIQDNSDIKVVPRRKAKIIRDYGKQMAGDDCVASRQDED
- INI1 incorporation into HIV-1 virions (Western blot of concentrated virions) [1]: wild type virus (FIG. 18c lane 2) ... incorporated INI1
- INI1 incorporation into HIV-1 virions (Western analysis of concentrated virions) (SP38 stapled peptide): INI1 was not incorporated into HIV-1 virions produced in the presence of SP38

B2: HIV-1NL4-3 integrase R228A, in virus (protein)
chain: B1 chain with R228A
- INI1 incorporation into HIV-1 virions (Western blot of concentrated virions) [1]: but not the W235E and R228A mutant virions incorporated INI1

B3: HIV-1NL4-3 integrase W235E, in virus (protein)
chain: B1 chain with W235E
- INI1 incorporation into HIV-1 virions (Western blot of concentrated virions) [1]: but not the W235E and R228A mutant virions incorporated INI1
